These results are taken from publication PMC5099578, “A structural and functional study on the 2-C-methyl-D-erythritol-4-phosphate cytidyltransferase (IspD) from Bacillus subtilis” (Scientific Reports, 2016).

Holding throughout (experiment): purified protein
Substrate in series [1]: C[C@](O)(CO)[C@H](O)COP(=O)(O)O
It counts as biochemical, Bacillus subtilis. To be noted: CTP co-substrate, 1 mM MgCl2, 0.1 M Tris-HCl pH 8.0, 1 mM DTT, 30 °C, MEP varied 10-400 μM, paper inconsistent: text gives 132.8 for MEP, Table 2 prints it under CTP.

Substrate in series [2]: Nc1ccn([C@@H]2O[C@H](COP(=O)(O)OP(=O)(O)OP(=O)(O)O)[C@@H](O)[C@H]2O)c(=O)n1
It counts as biochemical, Bacillus subtilis. To be noted: MEP co-substrate, 1 mM MgCl2, 0.1 M Tris-HCl pH 8.0, 1 mM DTT, 30 °C, CTP varied 10-500 μM, paper inconsistent: text gives 124.8 for CTP, Table 2 prints it under MEP.

Substrate in series [3]: Nc1ccn([C@@H]2O[C@H](COP(=O)(O)OP(=O)(O)OP(=O)(O)O)[C@@H](O)[C@H]2O)c(=O)n1
Conditions: MEP co-substrate, 1 mM MgCl2, 0.1 M Tris-HCl pH 8.0, 1 mM DTT, 30 °C, CTP varied 10-500 μM, paper inconsistent: text gives 291.5 for CTP (kcat 2307.7), Table 2 prints it under MEP (kcat 2307.2).

B1: BsIspD (Bacillus subtilis subsp. subtilis str. 168) (protein)
chain: MSYDVVIPAAGQGKRMKAGRNKLFIELKGDPVIIHTLRVFDSHRQCDKIILVINEQEREHFQQLLSDYPFQTSIELVAGGDERQHSVYKGLKAVKQEKIVLVHDGARPFIKHEQIDELIAEAEQTGAAILAVPVKDTIKRVQDLQVSETIERSSLWAVQTPQAFRLSLLMKAHAEAERKGFLGTDDASLVEQMEGGSVRVVEGSYTNIKLTTPDDLTSAEAIMESESGNKHV
notes: full length (699 bp gene, 232 residues built); pGEX-6P-1, expressed in E. coli, GST tag cut with PreScission protease; homodimer
Broadly, the Km is the concentration of substrate that gives half-maximal velocity. What is called kcat is the maximal rate divided by the concentration of active sites. By kcat/Km is commonly meant the second-order rate constant that governs catalysis at low substrate concentration. As for B1, in the series “purified protein [1]”, the Km is 132.8 ± 29 µM, the kcat was determined as 71.2 s⁻¹ and the kcat/Km came out at 536000 M⁻¹ s⁻¹. Also, in the series “purified protein [2]”, the Km stood at 124.8 ± 19 µM, the kcat amounted to 36.3 s⁻¹ and the kcat/Km turned out to be 291000 M⁻¹ s⁻¹.

B2: EcIspD (Escherichia coli K-12) (protein)
chain: ATTHLDVCAVVPAAGFGRRMQTECPKQYLSIGNQTILEHSVHALLAHPRVKRVVIAISPGDSRFAQLPLANHPQITVVDGGDERADSVLAGLKAAGDAQWVLVHDAARPCLHQDDLARLLALSETSRTGGILAAPVRDTMKRAEPGKNAIAHTVDRNGLWHALTPQFFPRELLHDCLTRALNEGATITDEASALEYCGFHPQLVEGRADNIKVTRPEDLALAEFYLTRTIHQENT
notes: pET22b, C-terminal His6 tag removed with thrombin; expressed in E. coli BL21 (DE3)
Take B2: in the series “purified protein [3]”, the Km was 291.5 ± 44 µM, the kcat was determined as 38.5 s⁻¹ and the kcat/Km turned out to be 132000 M⁻¹ s⁻¹.
